Usually IC50 stands for the concentration that inhibits the measured activity by half. A lower IC50 goes with greater potency. One may read the koff as the first-order rate constant of dissociation.

This note sets out measurements from US20260125454A1.

Like-named read-outs stand apart in the source and are kept apart here.

Assay [1] has as its target Biotin-huCGRPaSA (human). The assay is described as follows: ELISA, supernatant; relative to chimeric C245. On the technique in general: In an ELISA, binding on a coated surface is turned into a signal by an enzyme label.
Assay [2] addresses CGRP antigen. The assay can be described thus: cell-based or functional assay.
In assay [3] the target is CGRP antigen. The assay is described as follows: cell-based or functional assay. This is another data set of the same source.
The target of assay [4] is CGRP antigen. The assay is described as follows: cell-based or functional assay. This is another data set of the same source.
In assay [5] the target is synthetic human α-CGRP polypeptide (SEQ ID NO: 97)-NH2 (human). The assay is described as follows: BLI (Octet), antibody on AHC2, 50 nM CGRP; association pH 5.5, dissociation pH 5.5. Background: In BLI a coated tip is dipped into the sample, and binding shifts an interference pattern.
Chain of synthetic human α-CGRP polypeptide (SEQ ID NO: 97)-NH2 (human) (peptide, as listed by the source): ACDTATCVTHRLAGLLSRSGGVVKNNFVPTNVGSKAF
For assay [6] the target is unchanged. The assay is described as follows: BLI (Octet), antibody on AHC2, 50 nM CGRP; association pH 7.4, dissociation pH 5.5.
Assay [7] has the same target. The assay is described as follows: BLI (Octet), antibody on AHC2, 50 nM CGRP; association pH 7.4, dissociation pH 7.4.

Chain of Biotin-huCGRPaSA (human) (peptide, as listed by the source): as above

B1: hu34 (antibody, V domains shown)
VH: QVQLVQSGAEVKKPGASVKVSCKASGYTFIDFNMHWVRQAPGQRLEWMGYIYPYNGDVVYNQNFTNRVTLTVDTSSSTAYMELSSLRSEDTAVYYCAREGLGGYWGQGTLVTVSS
VL: DIVLTQSPDSLAVSLGERATINCKASQNIDFDGYAYMNWYQHKPGQPPKVLIYSVFNLESGVPDRFSGSGSGTDFTLTISSLQAEDVAVYYCQQSHEVPYTFGQGTKLEIK
The molecule B1 gave a Relative binding activity, % in assay [1] of 5%.

B2: fremanezumab from Teva (antibody, INN chains, looked up, V domains shown)
VH: EVQLVESGGGLVQPGGSLRLSCAASGFTFSNYWISWVRQAPGKGLEWVAEIRSESDASATHYAEAVKGRFTISRDNAKNSLYLQMNSLRAEDTAVYYCLAYFDYGLAIQNYWGQGTLVTVSS
VL: EIVLTQSPATLSLSPGERATLSCKASKRVTTYVSWYQQKPGQAPRLLIYGASNRYLGIPARFSGSGSGTDFTLTISSLEPEDFAVYYCSQSYNYPYTFGQGTKLEIK
With B2, the IC50 was 0.0563 µg/mL in assay [2], 0.0613 µg/mL in assay [3] and 0.0847 µg/mL in assay [4]. The same molecule showed a Relative binding activity (%) vs Ref(Teva) in assay [4] of 100%.

B3: Fremanezumab Analogue (antibody, INN chains, looked up, V domains shown)
VH: EVQLVESGGGLVQPGGSLRLSCAASGFTFSNYWISWVRQAPGKGLEWVAEIRSESDASATHYAEAVKGRFTISRDNAKNSLYLQMNSLRAEDTAVYYCLAYFDYGLAIQNYWGQGTLVTVSS
VL: EIVLTQSPATLSLSPGERATLSCKASKRVTTYVSWYQQKPGQAPRLLIYGASNRYLGIPARFSGSGSGTDFTLTISSLEPEDFAVYYCSQSYNYPYTFGQGTKLEIK
modifications: in-house analogue
With B3, the results for the Binding signal (nm) in assay [5], in assay [6] and in assay [7] were 0.08 nm, 0.1 nm and 0.12 nm, respectively. In addition, the off-rate (koff) in assay [5] was 5.1e-05 s⁻¹; in assay [6], under 1e-05 s⁻¹; in assay [7], under 1e-05 s⁻¹.

B4: Galcanezumab Analogue (antibody, INN chains, looked up, V domains shown)
VH: QVQLVQSGAEVKKPGSSVKVSCKASGYTFGNYWMQWVRQAPGQGLEWMGAIYEGTGKTVYIQKFADRVTITADKSTSTAYMELSSLRSEDTAVYYCARLSDYVSGFGYWGQGTTVTVSS
VL: DIQMTQSPSSLSASVGDRVTITCRASKDISKYLNWYQQKPGKAPKLLIYYTSGYHSGVPSRFSGSGSGTDFTLTISSLQPEDFATYYCQQGDALPPTFGGGTKVEIK
modifications: in-house analogue
For the molecule B4, the Binding signal (nm) in assay [5] turned out to be 0.11 nm; in assay [6], 0.12 nm; in assay [7] it was 0.14 nm. Moreover, the off-rate (koff) in assay [5] turned out to be 0.000251 s⁻¹; in assay [6] it was 0.00871 s⁻¹; in assay [7], 8.36e-05 s⁻¹.
